Data as given in US20160075778A1 (Regeneron, published 2016).
Substitutions are numbered along the chain they refer to.

B1: H4H10238P (antibody, V domains shown)
VH: QVQLVESGGGVVQPGRSLRLSCAASGFTFSSYGMHWVRQAPVKGLEWVAFISNDKSNKYYADSLKGRFTISRDNSKNTLYLQMNSLTAEDTAVYYCAKESILAALFDYWGQGTLVTVSS
VL: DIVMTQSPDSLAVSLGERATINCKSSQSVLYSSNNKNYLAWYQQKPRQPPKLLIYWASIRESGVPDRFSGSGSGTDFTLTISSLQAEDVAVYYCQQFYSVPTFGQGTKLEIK
B2: H4H10223P (antibody, V domains shown)
VH: B1 VH with S30N, S31T, K58T, Y59F, L64V, Y80F, Q82E
VL: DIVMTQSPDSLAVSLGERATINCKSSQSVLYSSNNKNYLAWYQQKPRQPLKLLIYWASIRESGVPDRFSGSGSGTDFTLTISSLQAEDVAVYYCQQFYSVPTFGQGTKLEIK
notes: Kappa light chain variable region
B3: H4H10231P (antibody, V domains shown)
VH: B1 VH with S31T, Y32F, S56N, Y59F, L64V, K76R, N77D, A88P
VL: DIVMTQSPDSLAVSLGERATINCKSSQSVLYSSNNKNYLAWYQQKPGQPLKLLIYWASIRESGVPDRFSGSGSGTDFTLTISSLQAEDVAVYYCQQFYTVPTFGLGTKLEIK
B4: H4H10237P (antibody, V domains shown)
VH: B1 VH with N53Y, K55G, L64V
VL: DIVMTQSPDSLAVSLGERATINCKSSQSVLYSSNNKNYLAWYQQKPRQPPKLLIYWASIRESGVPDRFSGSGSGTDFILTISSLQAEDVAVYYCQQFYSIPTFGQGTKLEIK
B5: H4H10250P (antibody, V domains shown)
VH: B1 VH with N53F, K55G, A61T, L64V, V93I
VL: DIVMTQSPDSLAVSLGERATINCKSSQSVLYSSNNKNYLAWYQQKPRQPPNLLIYWASIRESGVPDRFSGSGSGTDFTLTISSLQAEDVAFYYCQQFYSIPTFGQGTKLEIK
B6: H4H10256P (antibody, V domains shown)
VH: B1 VH with S30R, S31T, N53K, K55G, N57D, A61V, L64V, Y80F
VL: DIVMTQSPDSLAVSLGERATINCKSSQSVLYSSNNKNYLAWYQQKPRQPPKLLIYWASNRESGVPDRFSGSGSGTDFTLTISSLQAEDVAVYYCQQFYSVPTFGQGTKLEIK
B7: H4H10270P (antibody, V domains shown)
VH: B1 VH with L64V, Y108S
VL: B5 VL with N51K, T75A, E87A, F91V, I100V
B8: H1H059P (antibody, V domains shown)
VH: QVQLVESGGGVVQPGRSLRLSCAASGFAFSNYGMHWVRQAPGKGLEWVTFISYDGSNKYYADSVKGRFTISRDNSKNTLYLQVNSLRAEDTAVYYCAKEAVLAALFDYWGQGTLVTVSS
VL: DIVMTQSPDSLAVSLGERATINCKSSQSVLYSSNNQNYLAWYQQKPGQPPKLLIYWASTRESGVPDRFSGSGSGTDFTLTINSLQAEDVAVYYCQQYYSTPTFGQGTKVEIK
notes: The antibody was captured by an anti-human Fc antibody in SPR
B9: H4H10232P (antibody, V domains shown)
VH: QVQLVESGGGVVQPGRSLRLSCVASGFTFRNYDMHWVRQAPGKGLEWVAVTSSDGLNKFYSDSVKGRFTISRDNSKNTLSLQITGLRAEDTAVYYCAKESILAALFDYWGQGTLVTVSS
VL: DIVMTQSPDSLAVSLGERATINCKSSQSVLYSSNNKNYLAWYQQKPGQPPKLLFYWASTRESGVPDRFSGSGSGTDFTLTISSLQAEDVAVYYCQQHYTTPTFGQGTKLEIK
B10: H4H10236P (antibody, V domains shown)
VH: B1 VH with A40T, V42G, N53Y, K55G, S56N, L64V, Y80F, T87R
VL: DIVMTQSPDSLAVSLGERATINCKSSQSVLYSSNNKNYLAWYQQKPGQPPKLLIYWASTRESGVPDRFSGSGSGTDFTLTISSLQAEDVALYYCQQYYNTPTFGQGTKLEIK

Each binder was assayed against human glucagon (human) (assay: cell-based or functional assay).
In the case of B1, the “IC50, inhibition of GCG activation of HEK293/CRE-luc/hGCGR cells (luciferase reporter, 40 pM GCG)” value is reported as 1.8e-11 M.
With B2 the “IC50, inhibition of GCG activation of HEK293/CRE-luc/hGCGR cells (luciferase reporter, 40 pM GCG)” value was 9.5e-12 M.
For B3, the “IC50, inhibition of GCG activation of HEK293/CRE-luc/hGCGR cells (luciferase reporter, 40 pM GCG)” value was 7.3e-12 M.
In the case of B4, the “IC50, inhibition of GCG activation of HEK293/CRE-luc/hGCGR cells (luciferase reporter, 40 pM GCG)” value is reported as 3.4e-11 M.
With B5 the “IC50, inhibition of GCG activation of HEK293/CRE-luc/hGCGR cells (luciferase reporter, 40 pM GCG)” value was 3.4e-11 M.
With B6 the “IC50, inhibition of GCG activation of HEK293/CRE-luc/hGCGR cells (luciferase reporter, 40 pM GCG)” value was 1.8e-11 M.
In the case of B7, the “IC50, inhibition of GCG activation of HEK293/CRE-luc/hGCGR cells (luciferase reporter, 40 pM GCG)” value is reported as 2.2e-11 M.
In the case of B8, the “IC50, inhibition of GCG activation of HEK293/CRE-luc/hGCGR cells (luciferase reporter, 40 pM GCG)” value is reported as 9.1e-10 M.
B9 was tested, and the “IC50, inhibition of GCG activation of HEK293/CRE-luc/hGCGR cells (luciferase reporter, 40 pM GCG)” value was 2.3e-11 M.
B10 was tested, and the “IC50, inhibition of GCG activation of HEK293/CRE-luc/hGCGR cells (luciferase reporter, 40 pM GCG)” value was 2.5e-10 M.

The binders below were run against T1, human glucagon (human) (assay: SPR Biacore 4000, antibody captured by anti-human Fc, GCG injected, 25 C).
T1 construct: Bought peptide (Phoenix Pharmaceuticals, #028-02); 29 residue hormone; also called GCG; human GCG
T1 sequence (peptide, as listed by the source): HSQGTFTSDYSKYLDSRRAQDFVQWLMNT
Procedure: (§1) Experiments were performed at 25° C. and 37° C.
(§2) Kinetic association (kₐ) and dissociation (kd) rate constants were determined by processing and fitting the data to a 1:1 binding model using Scrubber 2.0c curve fitting software. Binding dissociation equilibrium constants (KD) and dissociative half-lives (t½) were calculated from the kinetic rate constants as: […]
Work on B1 yielded a Kd of 160 pM, a koff of 0.00062 s⁻¹ and a kon of 3.89e+06 M⁻¹ s⁻¹. It also gave a t½ of 19 min.
B2 was tested, and the Kd was 57.8 pM, the koff was 0.000541 s⁻¹ and the kon was 9.36e+06 M⁻¹ s⁻¹. It also gave a t½ of 21 min.
Binder B3 has a Kd of 92.7 pM, a koff of 0.000685 s⁻¹ and a kon of 7.39e+06 M⁻¹ s⁻¹. For the same binder, the t½ was 17 min.
For B4, the Kd was 208 pM, the koff was 0.00103 s⁻¹ and the kon was 4.96e+06 M⁻¹ s⁻¹. It also gave a t½ of 11 min.
Binder B5 has a Kd of 283 pM, a koff of 0.000939 s⁻¹ and a kon of 3.32e+06 M⁻¹ s⁻¹. For the same binder, the t½ was 12 min.
B6 gave a Kd of 75.3 pM, a koff of 0.000582 s⁻¹ and a kon of 7.72e+06 M⁻¹ s⁻¹. It also gave a t½ of 20 min.
B7 showed a Kd of 153 pM, a koff of 0.000732 s⁻¹ and a kon of 4.8e+06 M⁻¹ s⁻¹. For the same binder, the t½ was 16 min.
In the case of B8, the Kd is reported as 715 pM, the koff is reported as 0.00178 s⁻¹ and the kon is reported as 2.5e+06 M⁻¹ s⁻¹. For the same binder, the t½ was 6 min.
In the case of B9, the Kd is reported as 72.4 pM, the koff is reported as 0.000231 s⁻¹ and the kon is reported as 3.19e+06 M⁻¹ s⁻¹. It also gave a t½ of 50 min.
In the case of B10, the Kd is reported as 242 pM, the koff is reported as 0.000746 s⁻¹ and the kon is reported as 3.08e+06 M⁻¹ s⁻¹. It also gave a t½ of 15 min.

What follows are binders tested against T1, human glucagon (assay: SPR Biacore 4000, antibody captured by anti-human Fc, GCG injected, 37 C).
Procedure: as §1, §2
B1 gave a Kd of 555 pM, a koff of 0.00274 s⁻¹ and a kon of 4.94e+06 M⁻¹ s⁻¹. For the same binder, the t½ was 4 min.
Binder B2 has a Kd of 347 pM, a koff of 0.00223 s⁻¹ and a kon of 6.4e+06 M⁻¹ s⁻¹. It also gave a t½ of 5 min.
Binder B3 has a Kd of 1010 pM, a koff of 0.00245 s⁻¹ and a kon of 2.4e+06 M⁻¹ s⁻¹. It also gave a t½ of 5 min.
For B4, the Kd was 907 pM, the koff was 0.00683 s⁻¹ and the kon was 7.53e+06 M⁻¹ s⁻¹. For the same binder, the t½ was 2 min.
B5 showed a Kd of 1270 pM, a koff of 0.00708 s⁻¹ and a kon of 5.58e+06 M⁻¹ s⁻¹. For the same binder, the t½ was 2 min.
Binder B6 has a Kd of 314 pM, a koff of 0.00248 s⁻¹ and a kon of 7.9e+06 M⁻¹ s⁻¹. It also gave a t½ of 5 min.
With B7 the Kd was 559 pM, the koff was 0.00378 s⁻¹ and the kon was 6.77e+06 M⁻¹ s⁻¹. It also gave a t½ of 3 min.
For B8, the Kd was 4780 pM, the koff was 0.0236 s⁻¹ and the kon was 4.9e+06 M⁻¹ s⁻¹. The t½ was 0.5 min.
With B9 the Kd was 318 pM, the koff was 0.00147 s⁻¹ and the kon was 4.61e+06 M⁻¹ s⁻¹. For the same binder, the t½ was 8 min.
With B10 the Kd was 2080 pM, the koff was 0.0088 s⁻¹ and the kon was 4.25e+06 M⁻¹ s⁻¹. The t½ was 1 min.
